Tests used:
Fc fragment alone = test: ELISA binding to Fc fragment alone; details: antibody at 10 μg/mL
Protocol: (§1) The A3 antibody directed against FLT3 was produced by a phage display strategy and the antibody selection was performed by using ECD of human or mouse recombinant FLT3 produced in NSO cell line. To identify antibodies cross-reacting with both human and mouse FLT3, phages were selected by three rounds of panning, according to methods well known in the art (Philibert, P. et al. A focused antibody library for selecting scFvs expressed at high levels in the cytoplasm. BMC Biotechnol. 7, 81; 2007), first against the ECD of human FLT3, then against the ECD of mouse FLT3 and then against the ECD of human FLT3. A batch of one selected antibody named A3 was tested for its ability to bind to the ECD of human or mouse recombinant FLT3 using an ELISA technique.

FLT3 = biological target: T1, FLT3 (Mus musculus, UniProt Q00342); test: Chronic Constriction Injury (CCI) mouse model, mechanical hypersensitivity (0.6 g von Frey filament); assay type: in vivo
T1 construct: from tissue; host or cells: living mice (sensory neurons / DRG)
T1 sequence (Q00342 28-1000): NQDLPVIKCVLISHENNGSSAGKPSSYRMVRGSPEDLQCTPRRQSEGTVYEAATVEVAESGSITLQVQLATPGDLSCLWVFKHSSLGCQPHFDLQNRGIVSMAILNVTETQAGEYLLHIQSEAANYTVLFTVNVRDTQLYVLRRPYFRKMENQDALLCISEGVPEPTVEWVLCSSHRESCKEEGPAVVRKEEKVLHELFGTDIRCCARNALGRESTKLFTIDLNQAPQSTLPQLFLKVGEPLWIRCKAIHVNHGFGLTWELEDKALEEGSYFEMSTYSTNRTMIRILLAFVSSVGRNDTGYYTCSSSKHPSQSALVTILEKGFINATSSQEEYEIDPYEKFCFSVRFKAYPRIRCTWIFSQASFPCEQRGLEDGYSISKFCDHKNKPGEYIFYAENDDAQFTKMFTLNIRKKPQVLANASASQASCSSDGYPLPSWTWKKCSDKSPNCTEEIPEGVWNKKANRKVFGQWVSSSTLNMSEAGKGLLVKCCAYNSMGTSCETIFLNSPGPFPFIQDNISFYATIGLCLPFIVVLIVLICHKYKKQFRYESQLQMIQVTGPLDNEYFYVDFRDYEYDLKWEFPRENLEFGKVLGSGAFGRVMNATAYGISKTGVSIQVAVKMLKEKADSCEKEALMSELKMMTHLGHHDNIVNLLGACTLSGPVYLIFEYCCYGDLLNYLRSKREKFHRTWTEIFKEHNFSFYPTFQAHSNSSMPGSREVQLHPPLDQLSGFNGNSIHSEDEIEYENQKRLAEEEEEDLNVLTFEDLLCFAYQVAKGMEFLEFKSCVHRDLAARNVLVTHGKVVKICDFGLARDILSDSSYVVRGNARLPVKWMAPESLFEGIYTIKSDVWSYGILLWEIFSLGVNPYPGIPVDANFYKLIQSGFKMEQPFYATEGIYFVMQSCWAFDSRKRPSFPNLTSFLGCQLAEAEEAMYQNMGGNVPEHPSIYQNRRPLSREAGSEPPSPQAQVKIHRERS
Protocol: The efficacy of the antibody A3 to reverse neuropathic pain was assessed in the Chronic Constriction Injury (CCI) mouse model of persistent peripheral neuropathic pain, consisting in three chronic ligatures tied loosely around the sciatic nerve (Bennett, G. J. & Xie, Y. K. A peripheral mononeuropathy in rat that produces disorders of pain sensation like those seen in man. Pain, 1988, 33:87-107). Neuropathic pain symptoms, such as mechanical hypersensitivity, develop within 10 days post-injury.
CCI model. The Chronic Constriction Injury (CCI) model was adapted for mice (Costa, B., Comelli, F., Bettoni, I., Colleoni, M. & Giagnoni, G. The endogenous fatty acid amide, palmitoylethanolamide, has anti-allodynic and anti-hyperalgesic effects in a murine model of neuropathic pain: involvement of CB(1), TRPV1 and PPARgamma receptors and neurotrophic factors. Pain, 2008, 139:541-550). Briefly, skin was incised and the sciatic nerve was exposed unilaterally at the […] by dissecting through the biceps femoris. […]
Mechanical nociception assay. […] The procedure was applied 10 times and the percentage of positive responses was calculated.
Data and statistical analyses. Data are expressed as the mean ±S.E.M. Statistical significance was determined by two-way analysis of variance (ANOVA) for repeated measures, over time. […]

[1] = biological target: T2, ECD of mouse recombinant FLT3 (Fc-ECDmFLT3) (Mus musculus, UniProt Q00342); test: ELISA binding to ECD of mouse recombinant FLT3; details: antibody at 10 μg/mL
T2 construct: ECD of human or mouse recombinant FLT3 produced in NSO cell line; host or cells: NSO cell line
T2 sequence (Q00342 28-544 limits assumed): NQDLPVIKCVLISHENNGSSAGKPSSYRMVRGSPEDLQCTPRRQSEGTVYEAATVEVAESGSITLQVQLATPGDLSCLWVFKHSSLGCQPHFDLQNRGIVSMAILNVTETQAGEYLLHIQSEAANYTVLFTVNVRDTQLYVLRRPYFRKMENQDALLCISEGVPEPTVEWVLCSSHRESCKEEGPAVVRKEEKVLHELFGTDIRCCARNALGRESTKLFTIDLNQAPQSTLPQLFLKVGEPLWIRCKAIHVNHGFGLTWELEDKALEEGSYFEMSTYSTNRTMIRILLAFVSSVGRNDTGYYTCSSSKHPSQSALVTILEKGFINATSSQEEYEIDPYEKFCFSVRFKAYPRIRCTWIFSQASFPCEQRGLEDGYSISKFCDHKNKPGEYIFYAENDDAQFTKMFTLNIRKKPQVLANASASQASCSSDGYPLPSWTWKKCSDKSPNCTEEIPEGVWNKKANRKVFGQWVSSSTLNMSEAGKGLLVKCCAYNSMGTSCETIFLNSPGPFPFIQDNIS
Protocol: as §1

B1: A3 antibody: human monoclonal antibody against FLT3; VH SEQ ID NO:1, VL SEQ ID NO:2 (antibody, V domains shown)
VH: EVQLVESGGSLVKPGGSLRLSCAASGFTFSNSYMNWVRQAPGKGLEWISDISGSSRDIDYADFVKGRFTISRDNATNSLYLQMNSLRAEDTAVYYCVRSGNSGMDVWGRGTLVTVSS
VL: QSVLTQPASVSGSPGQSITISCAGTSSDVGGGYYVSWYQQHPGKAPKLMIYYDSYRPSGVSNRFSGSKSGNTASLTISGLQAEDEADYYCSSYTNNSTRVFGGGTKLEIK
modifications: Synthetic VH domain of A3; Synthetic VL region of A3
ELISA immunoreactivity against Fc fragment alone (Fc fragment alone): not against the Fc fragment alone | mechanical sensitivity (percentage of withdrawal) after CCI injury (FLT3; 100 μg/animal intraperitoneal, 9 days after CCI, vs control irrelevant antibody): completely reduce mechanical sensitivity to the scores obtained before CCI injury | duration of inhibition of CCI-induced pain hypersensitivity (FLT3; single injection, 100 μg/animal): 48 h | ELISA immunoreactivity against Fc-ECDmFLT3 [1]: generates immunoreactivity

— patent US10781452B2, “FLT3 receptor antagonists for the treatment or the prevention of pain disorders” (INSTITUT NATIONAL DE LA SANTE ET DE LA RECHERCHE MEDICALE …, priority 2010, dated 2020)
